According to patent US20260217819A1 (HANSOH BIO, published 2026):
Residue numbers refer to the chain shown, from its start.

How the values were obtained:
[1] = molecular target: human CDH17 as originally expressed in cells (AsPC1, GP2d) (human, UniProt Q12864 23-832); assay: cell-based or functional assay
[2] = molecular target: cynomolgus CDH17-His tag (Acro Biosystems, catalog number CA7-C52H4) (cynomolgus); assay: Octet BLI, antibody on AHC biosensor, His-tagged antigen 200 nM to 3.1 nM

B1: anti-CDH17 recombinant antibody 10E11 (human IgG1) (antibody, V domains shown)
VH: EVQLVQSGTEVKKPGESLKISCKDSGYRFSSYWIGWVRQMPGKGLEWMGIIYPGDSDTRYSPSFQGQVTISADKSISTAYLQWRSLKASDTAMYYCARRGWVNYFDYWGQGTLVTVSS
VL: DIQMTQSPSSVSASVGDRVTITCRASQGISNWLGWYQQKPGKAPKLLIYAASSLQSGVPSRFSGSGSGTDFTLTISSLQPEDFATYYCQQANSFPLTFGGGTKVEIKR
[1]
  IC50 of indirect killing assay to evaluate the internalization of recombinant anti-CDH17 antibodies into AsPC1 cells: 0.08 nM
[2]
  Kd: 15 nM
  koff: 0.0012 s⁻¹
  kon: 80000 M⁻¹ s⁻¹

B2: anti-CDH17 recombinant antibody 14B12 (human IgG1) (antibody, V domains shown)
VH: QVQLQESGPGLVKPSETLSLTCTVSGGSINTYYRSWIRQPPGKGLEWIGYIYYSGNTNYNPSLKSRVTISADTSKNQFSLNLISVTAADTAMYYCARAQYGEEAFDIWGQGTLVTVSS
VL: DIQMTQSPSSLSASVGDRVTITCRASQSITTYLNWYQQKPGKAPQLLIFAASRLQTGVPSRFSGSGSGTDFTLTISSLLPGDFATYYCQQSYNTPPTFGGGTKVEIKR
[1]
  IC50 of indirect killing assay to evaluate the internalization of recombinant anti-CDH17 antibodies into AsPC1 cells: 0.09 nM
[2]
  Kd: 2.5 nM
  kon: 620000 M⁻¹ s⁻¹

B3: anti-CDH17 recombinant antibody 1H10 (human IgG1) (antibody, V domains shown)
VH: QVQLVESGGGVVQPGRSLRLSCVASGFTFSSYGMHWVRQAPGKGLEWVTFIWYDGSNKNYADSVKGRFTISRDNSKNTLNLQMNSLRVEDTAVYYCARDRYSSGWDVFDYWGQGTLVTVSS
VL: B1 VL with G28D, N31S, G34A, K39Q, L47Q, N92K, L96P, G100Q
[1]
  IC50 of indirect killing assay to evaluate the internalization of recombinant anti-CDH17 antibodies into AsPC1 cells: 0.19 nM

B4: anti-CDH17 recombinant antibody 2F9 (human IgG1) (antibody, V domains shown)
VH: EVQLVESGGGVVRPGGSLRLSCAASGFTFDDYGMSWVRQAPGKGLEWVSGLSWNGGNTYYADSVKGRFTISRDNAKNSLYLQMNSLRAEDTALYYCARGSRYNWNYDAFDIWGQGTLVTVSS
VL: DIQMTQSPSSLSASIGDRVTITCRASQGIRNALGWYQQKPGKAPKRLIYAASNLQSGVPSRFSGSGSGTEFTLTISSLQPEDFATYYCLQHNSYPFTFGPGTKVEIKR
[1]
  IC50 of indirect killing assay to evaluate the internalization of recombinant anti-CDH17 antibodies into AsPC1 cells: 0.14 nM

B5: anti-CDH17 recombinant antibody 9E2 (human IgG1) (antibody, V domains shown)
VH: B4 VH with D31N, L51I, S52N, N57S, K65R, N105S
VL: B4 VL with I15V, I29V, N53S
[1]
  IC50 of indirect killing assay to evaluate the internalization of recombinant anti-CDH17 antibodies into AsPC1 cells: 0.15 nM

B6: anti-CDH17 recombinant antibody 4F9 (human IgG1) (antibody, V domains shown)
VH: QVQLQESGPGLVKPSGTLSLTCAVSGGSISSSNWWSWVRQPPGKGLEWIGEIYHSGSTSYNPSLKSRVTISVDKSKNQFSLKLSSVTAADTAVYYCARNDWGFPLDCWGQGTLVTVSS
VL: DIQMTQSPSSLSASVGDRVTITCRASQSISSYLNWYQQKPGKAPKLLIYAASSLQSGVPSRFSGSGSGTHFTLTISSLQPEDFATYYCQQSHNIPITFGQGTRLEIKR
[1]
  IC50 of indirect killing assay to evaluate the internalization of recombinant anti-CDH17 antibodies into AsPC1 cells: 0.29 nM

B7: anti-CDH17 recombinant antibody 13C7 (human IgG1) (antibody, V domains shown)
VH: QITLKESGPTLVKPTQTLTLTCTFSGFSLSTSGVGVGWIRQPPGKALEWLALIYWNDDKRYRPSLKNRLTITKDTSKNQVVLTMTNMDPVDTATYYCTHYGVTAPFYNWFDPWGQGTLVTVSS
VL: DIQMTQSPSSLSASVGDRVTITCRASQSITSYLNWYQQKPGKAPKLLIYAASSLQSGVPSRFSGSGSGTDFTLTISSLQPEDFATYYCQRSYSTLTFGGGTKVEIKR
[1]
  IC50 of indirect killing assay to evaluate the internalization of recombinant anti-CDH17 antibodies into AsPC1 cells: 0.09 nM

B8: anti-CDH17 recombinant antibody 15A4 (human IgG1) (antibody, V domains shown)
VH: B3 VH with V23A, T28N, T49A, I51V, K58Q, K76N, N80Y, V88A
VL: B1 VL with N31S, G34A, Y49F, D70G, N92K, L96P, G100Q
[1]
  IC50 of indirect killing assay to evaluate the internalization of recombinant anti-CDH17 antibodies into AsPC1 cells: 1.99 nM

B9: anti-CDH17 recombinant antibody 17F3 (human IgG1) (antibody, V domains shown)
VH: EVQLVESGGGLVKSGGSLRLSCAASGFTFSSYSLKWVRQAPGKGLEWVSSISSSSGYIYYADSVKGRFTISRDNAKNSLYLQMNSLRAEDTAMYYCARAVSTIAARPGYYYYYMDVWGKGTLVTVSS
VL: B1 VL with V15I, G28D, N31T, L33F, G34A, S53T, Q55R, S76N
[1]
  IC50 of indirect killing assay to evaluate the internalization of recombinant anti-CDH17 antibodies into AsPC1 cells: 0.08 nM

B10: anti-CDH17 recombinant antibody 19C7 (human IgG1) (antibody, V domains shown)
VH: B7 VH with F27I, S32G, A51S, R62S, N67S, T75S, T98A, Y100S, V102L, T103A
VL: B7 VL with T30S, S31N, Q38L, K42N, Y49F, Y87F
[1]
  IC50 of indirect killing assay to evaluate the internalization of recombinant anti-CDH17 antibodies into AsPC1 cells: 0.09 nM
